# Measured values from patent publication US11029303B2, “PAH antibodies and uses thereof” (The Administrators of the Tulane Educational Fund, priority 2015, dated 2021).
# Entries after “also recorded” stand apart in the source; their conditions may differ.
# Tests used:
# Format in all cases: binding
# [1] = Competitive flow cytometry of monoclonal yeast cells; conditions: soluble Phen versus 2-MePhen
# Procedure: For flow cytometry, the yeast library was incubated in growth medium SD-CAA at 30° C. overnight for activation. The next day, activated yeast cells were diluted in induction medium SG/R-CAA at OD600=0.5, and cultured again at 30° C. for 16 hrs. After induction, 10^7 induced yeast cells (OD600=0.5) were washed twice with 0.5 ml wash buffer I (0.5% BSA supplemented with 2 mM EDTA), and once with 0.5 ml wash buffer II (0.5% BSA). Yeast cells were first incubated with 50 μl competitor (phenanthrene or 2-methylphenanthrene, 200 μM in PBS containing 1% DMSO) for 30 min with rotation at 25° C. An additional aliquot (50 μl) of biotinylated protein-conjugate (BSA-biotin, phen-BSA-biotin, or 2mp-BSA-biotin at concentrations between 1 and 100 nM) containing 2 μg/ml anti-myc antibody 9E10 was then added and the cells were incubated for another 30 min. Yeast cells were washed 3 times with wash buffer II and stained with 4 μg/ml goat-antimouse-PE (Life Technologies, Grand Island, N.Y.) and 10 μg/ml streptavidin-Alexa633 (Life Technologies, Grand Island, N.Y.) in the dark room at 4° C. for an hour. The stained yeast cells were washed three times with wash buffer II and resuspended in 1 ml PBS for flow-cytometry analysis. The selected yeast population was sorted into 2 ml pre-warmed YPD medium, and incubated at 30° C. without shaking for 30 min before transferring into 30° C. shaker for two days. The sorted pool was analyzed again by flow cytometry using the same staining procedure. […]
# Yeast cells collected after 2nd sort were spread onto agar plates at various dilution level to obtain isolated single colonies. […] A total of 184 individual clones sorted from Pool 1 were picked and analyzed for their binding to Phen-BSA-Biotin in the presence of soluble Phen or 2-MePhen.
# [2] = Competitive ELISA with D7 in artificial seawater (ONR7a) and crude oil
# Procedure: FIG. 74 is (A) a graph showing a comparison of competitive ELISA for phenanthrene, an abundant PAH in crude oil, in phosphate-buffered saline (ionic strength of serum) and ONR7a, an artificial environmental matrix that mimics seawater. The limit of detection of phenanthrene in this matrix is ˜1 μM. Compared with two buffer PBS and ONR7A (article seawater), the IC50s of two curves were no different than 2 fold.
# FIG. 77 is a bar graph showing that the D7 antibody can detect the model PAH, phenanthrene in a background of crude oil (4 and 0.8 mL/L). At both concentrations of crude oil, the presence of 500 μM phenanthrene decreased the absorbance in the immunoassay by 30% (*, p<0.05).
# The D7 antibody can detect phenanthrene in the presence of crude oil at concentrations similar to those found in oil spills (0.8-4 mL per liter of seawater). At both concentrations tested (0.8 and 4 mL crude oil/L of synthetic seawater), the D7 antibody was able to detect phenanthrene, as shown by the 30% decrease in absorbance in the competitive ELISA. This will form the basis for an ELISA to determine the measurement and degradation of PAHs in crude oil. (see FIG. 77).
# [3] = Cross-reactivity competitive ELISA, ligand fluoranthene; conditions: ligand 200 μM to 0.091 μM; read-out: affinity (IC50)
# Procedure: (§1) Competitive ELISA was performed similar as described in Example 3, except that an anti-myc antibody (9E10) was added before applying goat-antimouse-HPR secondary antibody to detect myc-tag on scFv construct.
# (§2) A real-world field sample is a complex mixture and contains a variety of PAH compounds. An understanding of the abilities of antibody to recognize various PAHs can greatly facilitate the development and application of these antibodies into field studies. In the final assessment, the inventors determined the cross-reactivity of these three scFv clones among 16 structurally related EPA priority PAH species via competitive ELISAs. First, the inventors inhibited the binding of scFv to the immobilized Phen-BSA by high concentrations (50 μM) of PAHs to determine if the scFv can recognize the ligand.
# [4] = Cross-reactivity competitive ELISA, ligand indeno-[1,2,3-cd]-pyrene
# Procedure: as §1, §2
# [5] = Cross-reactivity competitive ELISA, ligand pyrene; conditions: ligand 200 μM to 0.091 μM; read-out: affinity (IC50)
# Procedure: as §1, §2
# [6] = Cross-reactivity of scFv clones against EPA 16 PAHs (competitive ELISA); conditions: for cross-reactivity / inhibition by the 16 EPA PAHs: 50 μM PAH, less than 20% decrease = non-reactive
# Procedure: as §1, §2
# [7] = Competitive ELISA with purified scFv, ligand 4-MP; conditions: Phen-BSA coated plate
# Procedure: (§3) Competitive ELISA was performed in 96 well high binding plates (Corning, Corning, N.Y.). Each well was coated with 2 μg/ml antigen at 4° C. overnight and blocked with 3% BSA. Antibody scFv was incubated in the antigen-coated well with or without soluble competitor, and the binding of scFv was accessed using anti-myc antibody (9E10) and goat-antimouse-HPR antibody (Sigma Aldrich, MO). The HRP signal was detected by adding Sureblue TMB microwell peroxidase substrate (KPL, Gaithersburg, Md.) and the reaction was stopped after 5 minutes using 1 M HCl. The incubation steps were performed at room temperature for an hour. […]
# (§4) Competitive ELISA or indirect ELISA was performed in 96-well high binding plates (Corning, Corning, N.Y.). […] The HRP signal was detected by adding Sureblue TMB microwell peroxidase substrate (KPL, Gaithersburg, Md.) and the reaction was stopped after 5 min using 1N HCl. The quantified signals were measured by reading […] values from microplate photometer. […]
# (§5) Since A10, D7 and G8 represent three distinct family based on the sequence alignment, the inventors next explored the binding characteristics of these three clones as models to of the antibodies present in the immune library. Purified scFv were prepared and analyzed by competitive ELISA for their abilities to recognize unsubstituted phenanthrene or methylated phenanthrenes, as shown in FIG. 55. […]
# [8] = Competitive ELISA with purified scFv, ligand 3-MP; conditions: Phen-BSA coated plate; 5% DMSO
# Procedure: as §3, §4, §5
# [9] = Competitive ELISA with purified scFv, ligand phenanthrene; conditions: Phen-BSA coated plate; 5% DMSO
# Procedure: as §3, §4, §5
# [10] = Competitive ELISA with purified scFv, ligand 9-MP; conditions: Phen-BSA coated plate; 5% DMSO
# Procedure: as §3, §4, §5
# [11] = Competitive ELISA with purified scFv, ligand 2-MP; conditions: Phen-BSA coated plate; 5% DMSO; read-out: affinity (IC50)
# Procedure: as §3, §4, §5
molecule,measurement,setting,value
"Clone D7: scFv, amino acid sequence SEQ ID NO: 42; binds unmethylated and methylated phenanthrenes alike (protein) scFv: SAHAEAYLQQSGAELVRPGTSVKVSCKASGYAFTKYLIEWVKQRPGQGLEWIGVINPGSGSTSYNEKFRYKAILTADTSSSTAYMQLSSLTSDDSAVYFCATIPASYRSDSLDCWGQGTTVTVSSGGGGSGGGGSGGGARGGGGSDTTVTQSHKFMSTSVGDRVSITCKASQDVGTAVAWYQQKPGQSPKLLIYWASTRHTGVPDRFTGSGSGTDFTLTISNVQSEDLADYFCQQYSSYPWTFGGGTKLEMKRAS",inhibition of binding to Phen-BSA-Biotin by soluble competitors,[1],unable to distinguish between the 2 soluble competitors
same,decrease in absorbance in the immunoassay,"[2]; 500 μM phenanthrene, crude oil 4 and 0.8 mL/L",30%
same,activity in artificial seawater matrix (ONR7a),[2]; ONR7a,active
same,IC50,[3],1500 nM
same,IC50,"[4]; ligand 200 μM to 0.091 μM, read-out: affinity (IC50)",1500 nM
same,IC50,[5],1500 nM
same,"sensitivity for fluoranthene, indeno-[1,2,3-cd]-pyrene and pyrene relative to phenanthrenes",[6],about 4 fold
"Clone G8: scFv, amino acid sequence SEQ ID NO: 45; binds 4-methylphenanthrene most tightly (protein) scFv: SAHAEAYLQQSGAELVRPGTSVKVSCKASGYVFTNFLIEWVKQRPGQGLEWIGVINPGNGGAAYNEKFKGKAILTADKSSSTAYMQLSSLTSDDSAVYFCARLPPSYDYDGDIDYWGQGTTVTVSSGGGGSGGGGSGGGARGGGGSDLVLTQSPASLAVALGQRATISCRASKSVTTSGYSLMHWYRQKPGQPPKLLIYPASNLESGVPARFSGSGSGTDFTLNIHPVEEEDAATYYCQHSRELPWTFGGGTKLEIKRAS",IC50,[7],940 nM
same,affinity,[7]; 5% DMSO,sub-micromolar
same,inhibition of binding to Phen-BSA-Biotin by soluble competitors,[1],unable to distinguish between the 2 soluble competitors
same,"recognition of indeno-[1,2,3-cd]-pyrene",[4],did not recognize
same,IC50,[8],14400 nM
same,cross-reactivity / inhibition by the 16 EPA PAHs,[6],some cross-reactivity to other PAHs
"Clone A10: scFv, amino acid sequence SEQ ID NO: 37; binds methylated phenanthrenes, prefers 2-methylphenanthrene (protein) scFv: SAHAEAYLQQSGAELVKPGASVKLSCKASGYTFTSYWMHWVKQRPGQGLEWIGEINPRNGRSNYNEKFKNKATVTVDKYSNTAYMQLSSLTSDDSAVYYCTRDGGDYWGQGTTVTVSSGGGGSGGGGSGGGARGGGGSDIVLTQSHKFMSTSVGDRVSITCKASQDVGTAVAWYQQKPGQSPKLLIYWASTRHTGVPDRFTGSGSGTDFTLTISNVQSEDLADYFCQQYSSYPLTFGGGTKLEMKRAS",inhibition of binding to Phen-BSA-Biotin by soluble competitors,[1],some tendency for the 2-MePhen over unsubstituted Phen
same,recognition of parent phenanthrene,[9],did not recognized
same,recognition of 9-MP,[10],did not recognized
same,IC50,[11],8280 nM
same,cross-reactivity / inhibition by the 16 EPA PAHs,[6]; listed as A10,None of the 16 PAHs showed significant inhibition; also recorded: no cross-reactivity to other PAHs
